Experimental data reported in patent US20170296628A1 (GRIFFON PHARMACEUTICALS, published 2017).
Non-standard residues stand in square brackets, D forms with d. No end group written: not given here. hArg = N=C(N)NCCCC[C@H](N)C(=O)O; Orn = NCCC[C@H](N)C(=O)O

T1: human GHRH receptor (human, UniProt Q02643 23-423)
T1 sequence (looked up): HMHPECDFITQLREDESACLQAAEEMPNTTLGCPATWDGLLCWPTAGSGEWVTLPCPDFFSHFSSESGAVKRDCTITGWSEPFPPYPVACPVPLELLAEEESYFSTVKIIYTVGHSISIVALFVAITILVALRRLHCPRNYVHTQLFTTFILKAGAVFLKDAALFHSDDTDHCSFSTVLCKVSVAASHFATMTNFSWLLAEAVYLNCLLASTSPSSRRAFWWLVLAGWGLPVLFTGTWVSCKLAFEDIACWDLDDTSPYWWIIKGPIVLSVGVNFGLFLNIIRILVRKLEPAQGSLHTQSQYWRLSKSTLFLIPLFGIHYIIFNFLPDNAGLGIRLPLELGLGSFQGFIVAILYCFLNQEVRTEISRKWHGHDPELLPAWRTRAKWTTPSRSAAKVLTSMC


Target: T1, human GHRH receptor
Test: cell-based or functional assay

Binder | EC50 (nM), Hit Hunter cAMP agonist assay | Max Response (%) | Potency (%) (% EC50 compared to baseline)
Y[dA]DAIFTC(PEG 2 kDa)SYR[Orn]VLAQLSAR[Orn]ALQDILSKN-NH2 [Analog 7 (C8)] | 0.69 nM | 108% | 52%
Y[dA]DAIFTASYR[Orn]VLC(PEG 2 kDa)QLSAR[Orn]ALQDILSKN-NH2 [Analog 5 (C15)] | 1.38 nM | 107% | 26%
Y[dA]DAIFTASYR[Orn]VLAQLSAR[Orn]ALC(PEG 2 kDa)DILSKN-NH2 [Analog 2 (C24)] | 0.28 nM | 108% | 130%
Y[dA]DAIFTASYR[Orn]VLAQLSC(PEG 2 kDa)R[Orn]ALQDILSKN-NH2 [Analog 4 (C19)] | 1.32 nM | 94.9% | 27%
Y[dA]DAIFTASYR[Orn]VLAQLSAR[Orn]ALQDILC(PEG 2 kDa)KN-NH2 [Analog 1 (C28)] | 0.29 nM | 105% | 125%
Y[dA]DAIFTASYR[Orn]VLAQLSAR[Orn]ALQDC(PEG 2 kDa)LSKN-NH2 [Analog 8 (C26)] | 0.98 nM | 106% | 37%
Y[dA]DAIFTAC(PEG 2 kDa)YR[Orn]VLAQLSAR[Orn]ALQDILSKN-NH2 [Analog 6 (C9)] | 0.29 nM | 102% | 123%
Y[dA]DAIFTASYR[Orn]VLAQLSAR[Orn]C(PEG 2 kDa)LQDILSKN-NH2 [Analog 3 (C22)] | 0.25 nM | 100% | 143%

Other lines, results leading:

EC50 (nM), Hit Hunter cAMP agonist assay | Max Response (%) | Potency (%) (% EC50 compared to baseline) | Binder
 | 104% | 100% | YADAIFTNSYRKVLGQLSARKLLQDIMSX (C-terminal amide) [Human GHRH1-29]
0.92 nM | 107% | 39% | Y[dA]DAIFTASYR[Orn]VLAC(PEG 2 kDa)LSAR[Orn]ALQDILSKN-NH2 [Analog 9 (C16)]

Target: T1, human GHRH receptor
Test: cell-based or functional assay
Remark: another data set of the same source

EC50 (nM), Hit Hunter cAMP agonist assay | Max. response (%) | Potency (%) (% EC50 compared to baseline) | Binder
0.11 nM | 96.2% | 1400% | Y[dA]DAIFTAC(PEG 2 kDa)YR[Orn]VLAQLSAR[Orn]ALQDILS[hArg]-NH2 [Analog 10 (C9)]
0.41 nM | 103% | 361% | Y[dA]DAIFTAC(PEG 2 kDa)YR[Orn]VLAQLSAR[Orn]ALC(PEG 2 kDa)DILSRN-NH2 [Analog 13 (C9,24)]
 | 113% | 100% | YADAIFTNSYRKVLGQLSARKLLQDIMSX (C-terminal amide) [Human GHRH1-29]
0.47 nM | 97.2% | 314% | Y[dA]DAIFTAC(PEG 2 kDa)YR[Orn]VLAQLSAR[Orn]ALQDILSRNC(PEG 2 kDa)-NH2 [Analog 11 (C9,31)]
 | 102% | 416% | Y[dA]DAIFTAC(PEG 2 kDa)YR[Orn]VLAQLSAR[Orn]ALQDILC(PEG 2 kDa)RN-NH2 [Analog 12 (C9,28)]
0.22 nM | 94.3% | 669% | Y[dA]DAIFTACYR[Orn]VLAQLSAR[Orn]ALQDILS[hArg]-NH2 (not fully specified (residue 9); printed as YaDAIFTAC(Peg-5K)YROVLAQLSAROALQDILS(Har)-NH2) [Analog 15 (C9)]
0.74 nM | 93.7% | 200% | Y[dA]DAIFTAC(PEG 40 kDa)YR[Orn]VLAQLSAR[Orn]ALQDILS[hArg]-NH2 [Analog 16 (C9)]
0.73 nM | 97.2% | 203% | Y[dA]DAIFTAC(PEG 2 kDa)YR[Orn]VLAQLSAR[Orn]C(PEG 2 kDa)LQDILSRN-NH2 [Analog 14 (C9,22)]
